Assays:
[1] = system: MS2 coat protein; assay: apparent KD of MS2 coat protein, switch OFF state (with FMN for OFF switches, without FMN for ON switches); designed switch direction (-1 OFF switch, 1 ON switch): 1; higher = weaker reporter binding; details: FMN input: 0 or 200 uM; Eterna round: R93 (includes R88 designs)
How it was run: (§1)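 Apparent KD is reported per design as the median of normalised binding-curve fits across its clusters. The RNA switches were made by on-chip transcription from Illumina sequencing clusters. SNAP-549-labelled MS2 coat protein was then added in twofold steps (0.7 or 1.5 nM to 3 µM; 0.8–1.5 h to 10–20 min per step) in 100 mM Tris-HCl pH 7.5, 80 mM KCl, 4 mM MgCl2, without or with constant ligand.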

[2] = system: MS2 coat protein; assay: apparent KD of MS2 coat protein, switch ON state; designed switch direction (-1 OFF switch, 1 ON switch): 1; higher = weaker reporter binding; details: FMN input: 0 or 200 uM; Eterna round: R93 (includes R88 designs)
How it was run: as §1

| Sequence | apparent KD of MS2 coat protein [1] [nM] | apparent KD of MS2 coat protein [2] [nM] |
| --- | --- | --- |
| AAAAAACAUGAGGAUCACCCAUGUCGAAAGACAUGAGGAUAUGUGUGGAAACCAUACUAUACAGAAGGCAUAAAAA [SS1 - 1009] | 66.1 | 82.6 |
| AAAAAACAUGAGGAUCACCCAUGUGAAAAAAUCGCAGGAUAUCCCUUUUUUAAAUGGGAGGGAGAAGGGUGAAAAA [Nob's Hobby 15 - Jieux - Same State 1] | 84.7 | 40.3 |
| AAAAAACAUGAGGAUCACCCAUGUGAGAACAUGGGAGGAUAUACGAGGACGAGAGUCAUAGUAGAAGGCCUAAAAA [Garnet 67] | 65.6 | 109 |
| AAAAAACAUGAGGAUCACCCAUGUGCAAAAUUCGCAGGAUAUUCUUCUCUUAAAUGAGAGGGAGAAGGGUGUAAAA [Nob's Hobby 24 - Jieux - Same State 1] | 43.3 | 18.2 |
| AAAAACAUAGUUCAGGAUAUGGUAAUAGUCACAUGAGGAUCACCCAUGUUCAUUUAUAUGAGCGAUCAGAAGGGAGGUAAAAAAA [Mat - Same state - Malcolm Mod - D115] | 125 | 124 |
| AAAAGACAUGAGGAUCACCCAUGUAAAAACAUAGGAGGAUAUGUCGUGAAAAAAGACUUGGCAGAAGGCCUUUGUC [SS1 - 45] | 76.4 | 48.1 |
| AAAAGACAUGAGGAUCACCCAUGUCAAAACGUAGGAGGAUAUGUCGUGAAAAAAGACUUGGCAGAAGGCCUGUGUC [SS1 - 42] | 19.5 | 15.4 |
| AAAAGACAUGAGGAUCACCCAUGUCAAGACGUAGGAGGAUAUGUCGUGAAAAAAGACUUGGCAGAAGGCCUGUGUC [SS1 - 41] | 21.4 | 15 |
| AAAAUAUAAAGGAAGGAUAUCCAAAGGACUACAUGAGGAUCACCCAUGUAAAGAAAGAAUAAGUGGGAGAAGGUCCAAAUAAUAA [Designing denovo 31] | 68.3 | 27 |
| AAAGAAAAACUAGAGGAUAUCCGAGUGGUAACAUGAGGAUCACCCAUGUGAAGAAAGGAGCGUGAGGAGAAGGCUAGAAGAAAAA [JL Nando mod 24] | 146 | 11 |
| AAAGACAUAGUUCAGGAUAUGGUAAUAGUCACAUGAGGAUCACCCAUGUUCAUUUAUAUGAGCGAUCAGAAGGGAGGUAAAAAAA [SameState2 Malc#15] | 244 | 182 |
| AAAGUACAUGAGGAUCACCCAUGUUGAAAAAAUCGAGGAUAUGCGAAAAAAAAAAAAAAAGCAGAAGGUGAAAAAA [I 'NO' this state well 2] | 38.6 | 24.4 |
| AAAGUACAUGAGGAUCACCCAUGUUGGAACAAAGCAGGAUAUGUACAAAAGGAAAUAAAUACAGAAGGGCUAAGAA [Same State #2] | 32.9 | 20 |
| AAAUAAAGGACUGAGGAUAUACCACAUGAAACAUGAGGAUCACCCAUGUUGAAAAACAAAGGGUGGUAGAAGGUAGUCCACAAAC [Same State 2.5a ( so lets mod hyphema)] | 29.3 | 17.2 |
| AAAUAAAUGACUAAGGAUAUCUCUGAGAAAACAUGAGGAUCACCCAUGUAAUAAUAAAAAGGGUGAGAGAAGGUAGUCAACAAAC [Same State 2.1 (Pariah 4 -changed stack on 9nt hairpin)] | 68 | 18 |
| AAAUAUAAAAGAUAGGAUAUACUAAAAUAAACAUGAGGAUCACCCAUGUAAAAAAAAAAACUCAUGUAGAAGGAUCAAAUAUAAA [ss2 8th] | 38.1 | 33.4 |
| AACAAUCUAUCUGAGGAUAUAUGUCAAAAGACAUGAGGAUCACCCAUGUAAAAACAUGAAAAAUAAUAGAAGGCAGAUAGAUUGA [SS2: 1140] | 52.4 | 59.9 |
| AACAAUCUAUCUGAGGAUAUCAAGUCAAAGACAUGAGGAUCACCCAUGUUGCAGGAAACUGCUCUUGAGAAGGCAGAUAGAUUGA [SS2: 1130] | 13.5 | 9.84 |
| AACAAUCUAUCUGAGGAUAUGUGUCGAAAGACAUGAGGAUCACCCAUGUAAAAACAUGAAAAAUCACAGAAGGCAGAUAGAUUGA [SS2: 1144] | 144 | 59.3 |
